Laboratory results as given in US20240084042A1 (Genentech, published 2024).
Residue numbers refer to the chain shown, from its start. In names and notes the source's numbering stands.

Tests used:
[1] = target: T1, human KLK7 (SEQ ID NO: 4 plus a C-terminal FLAG tag) (human, UniProt P49862 30-253); assay: cell-based or functional assay
human KLK5 [2] = target: T2, human KLK5 (human, UniProt Q9Y337 67-293); assay: cell-based or functional assay
T2 sequence: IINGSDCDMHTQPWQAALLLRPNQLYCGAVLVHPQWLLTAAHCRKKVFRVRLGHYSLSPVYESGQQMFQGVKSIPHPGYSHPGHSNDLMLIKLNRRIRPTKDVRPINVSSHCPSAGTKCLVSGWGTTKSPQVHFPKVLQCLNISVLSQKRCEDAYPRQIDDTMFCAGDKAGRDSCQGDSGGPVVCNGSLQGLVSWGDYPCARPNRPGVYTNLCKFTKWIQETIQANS

[3] = target: T3, cyano KLK7 (SEQ ID NO: 6 plus a C-terminal FLAG tag) (cynomolgus monkey, UniProt P49862 30-253 (human entry)); assay: cell-based or functional assay
T3 sequence (P49862 other isoform, or with tags, fused parts or gaps): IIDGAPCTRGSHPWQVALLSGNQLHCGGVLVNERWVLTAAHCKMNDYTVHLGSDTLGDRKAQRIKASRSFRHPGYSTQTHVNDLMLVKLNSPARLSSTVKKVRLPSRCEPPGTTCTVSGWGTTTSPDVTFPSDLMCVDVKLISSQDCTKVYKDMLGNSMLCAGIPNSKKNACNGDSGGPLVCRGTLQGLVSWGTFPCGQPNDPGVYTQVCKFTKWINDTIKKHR

cynomolgus monkey KLK5 [4] = target: T4, cynomolgus monkey KLK5 (cynomolgus monkey, UniProt Q9Y337 67-293 (human entry)); assay: cell-based or functional assay
T4 chain: T2 sequence with M9E, R21G, A29G, V71I, R98H, P99S, K128R, K169E, R202K

human KLK5 [5] = target: T2, human KLK5; assay: kinetics of bispecific antibody, method not restated (SPR implied)
cynomolgus monkey KLK5 [6] = target: T4, cynomolgus monkey KLK5; assay: as above
human KLK7 [7] = target: T5, human KLK7 (human, UniProt P49862 30-253); assay: as above
T5 construct: Antigen injected in SPR; also called hu KLK7; huKLK7
T5 sequence (P49862 30-253): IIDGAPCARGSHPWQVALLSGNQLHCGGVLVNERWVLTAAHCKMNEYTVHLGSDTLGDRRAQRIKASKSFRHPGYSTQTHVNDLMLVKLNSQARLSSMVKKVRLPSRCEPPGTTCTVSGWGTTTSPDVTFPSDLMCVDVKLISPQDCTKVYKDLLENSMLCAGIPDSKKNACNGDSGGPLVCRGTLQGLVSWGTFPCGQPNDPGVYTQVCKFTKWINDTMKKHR

cynomolgus monkey KLK7 [8] = target: T6, cynomolgus monkey KLK7 (cynomolgus monkey, UniProt P49862 30-253 (human entry)); assay: as above
T6 construct: Antigen injected in SPR; also called Cy KLK7; cyno KLK7
T6 sequence (P49862 other isoform, or with tags, fused parts or gaps): as the sequence (P49862 other isoform, or with tags, fused parts or gaps) above

[9] = target: T1, human KLK7 (SEQ ID NO: 4 plus a …); assay: cell-based or functional assay; remark: listed apart in the source
[10] = target: T3, cyano KLK7 (SEQ ID NO: 6 plus a …); assay: cell-based or functional assay; remark: listed apart in the source
huKLK11 = target: T7, huKLK11 (human, UniProt Q9UBX7 54-282, limits assumed); assay: SPR (BIAcore T200), as for Table 1
T7 sequence (looked up): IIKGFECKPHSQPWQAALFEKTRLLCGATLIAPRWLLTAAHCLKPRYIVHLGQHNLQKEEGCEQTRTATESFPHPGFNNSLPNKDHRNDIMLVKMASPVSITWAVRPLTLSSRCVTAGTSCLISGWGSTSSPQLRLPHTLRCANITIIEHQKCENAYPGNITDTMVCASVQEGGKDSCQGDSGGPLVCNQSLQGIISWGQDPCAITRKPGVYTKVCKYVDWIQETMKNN

human KLK5 [11] = target: T2, human KLK5; assay: SPR (BIAcore T200), as for Table 1
huKLK1 = huKLK1 (human, UniProt P06870 25-262, limits assumed); assay: SPR (BIAcore T200), as for Table 1
huKLK1, sequence (P06870 25-262 limits assumed): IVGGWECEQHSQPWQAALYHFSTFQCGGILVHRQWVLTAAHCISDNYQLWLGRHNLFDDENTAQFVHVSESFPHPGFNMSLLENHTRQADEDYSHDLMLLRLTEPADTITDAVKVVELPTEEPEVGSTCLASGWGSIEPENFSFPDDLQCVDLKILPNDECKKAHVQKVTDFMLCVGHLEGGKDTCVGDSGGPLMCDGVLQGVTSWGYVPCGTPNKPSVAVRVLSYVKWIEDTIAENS

huKLK4 = huKLK4 (human, UniProt Q9Y5K2 31-254, limits assumed); assay: SPR (BIAcore T200), as for Table 1
huKLK4, sequence (Q9Y5K2 31-254 limits assumed): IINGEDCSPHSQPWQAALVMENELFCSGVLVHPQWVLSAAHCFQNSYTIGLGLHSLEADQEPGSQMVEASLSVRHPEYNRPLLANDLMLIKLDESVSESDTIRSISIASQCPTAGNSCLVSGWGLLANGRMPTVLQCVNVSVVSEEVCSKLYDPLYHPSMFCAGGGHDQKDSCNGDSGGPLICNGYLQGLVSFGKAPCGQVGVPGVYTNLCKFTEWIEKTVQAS

human KLK7 [12] = target: T5, human KLK7; assay: SPR BIAcore T200, antibody on protein A chip, 25 C
Procedure: (§1) The binding affinity of the antibodies was determined by BIAcore™ T200 machine. Rabbit antibodies were recombinantly expressed. For kinetics measurements, antibodies were captured on research grade protein A chip (GE Healthcare, USA) to achieve approximately 300 RU. Ten-fold serial dilutions of human and cyano KLK7 were injected in HBS-P buffer at 25° C. with a flow rate of 30 μL/min. Association rates (ka) and dissociation rates (kd) were calculated using a 1:1 Langmuir binding model (BIAcore™ T200 Evaluation Software version 2.0). The equilibrium dissociation constant (KD) was calculated as the ratio kd/ka.

cynomolgus monkey KLK7 [13] = target: T6, cynomolgus monkey KLK7; assay: SPR BIAcore T200, antibody on protein A chip, 25 C
Procedure: as §1

T1 sequence (P49862 30-253): as the sequence (P49862 30-253) above

B1: hu.10C5VY.hu14H11c.L2H11 LS (bispecific antibody, human IgG1, kappa, N297G)
heavy 1: EQQLVESGGGLIQPGGSLRLSCAASGFSFSSSYYMSWVREAPGKGLEWVSSIYAGSSGAPYYAGWAKGRFTISRDNSKNTLYLQMNSLRAEDTAVYYCAREGFAETGGYGYAAYFNLWGPGTLVTVSSASTKGPSVFPLAPSSKSTSGGTAALGCLVKDYFPEPVTVSWNSGALTSGVHTFPAVLQSSGLYSLKSVVTVPSSSLGTQTYICNVNHKPSNTKVDKKVEPKSCDKTHTCPPCPAPELLGGPSVFLFPPKPKDTLMISRTPEVTCVVVDVSHEDPEVKFNWYVDGVEVHNAKTKPREEQYGSTYRVVSVLTVLHQDWLNGKEYKCKVSNKALPAPIEKTISKAKGQPREPQVYTLPPSREEMTKNQVSLWCLVKGFYPSDIAVEWESNGQPENNYKTTPPVLDSDGSFFLYSKLTVDKSRWQQGNVFSCSVLHEALHSHYTQKSLSLSPGK
light 1: DIQMTQSPSSLSASVGDRVTITCLASEDIASSVSWYQKKPGKAPKLLIYGASNLESGVPSRFSGSGSGTDYTLTISSLQPEDFATYYCLGGYSYSSTGTAFGGGTKVEIKRTVAAPSVFIFPPSDEQLKSGTASVECLLNNFYPREAKVQWKVDNALQSGNSQESVTEQDSKDSTYSLSSTLTLSKADYEKHKVYACEVTHQGLSSPVTKSFNRGEC
heavy 2: EVQLVESGGGLVQPGGSLRLSCAASGFSLSSYGVTWVRKAPGKGLEWIGYITSVYGVSYYASWAKSRSTISRDTSKNTVYLQMGSLRAEDMAVYYCARENPDYGYAYDAWGQGTTVTVSSASTKGPSVFPLAPSSKSTSGGTAALGCLVKDYFPEPVTVSWNSGALTSGVHTFPAVLQSSGLYSLESVVTVPSSSLGTQTYICNVNHKPSNTKVDKKVEPKSCDKTHTCPPCPAPELLGGPSVFLFPPKPKDTLMISRTPEVTCVVVDVSHEDPEVKFNWYVDGVEVHNAKTKPREEQYGSTYRVVSVLTVLHQDWLNGKEYKCKVSNKALPAPIEKTISKAKGQPREPQVYTLPPSREEMTKNQVSLSCAVKGFYPSDIAVEWESNGQPENNYKTTPPVLDSDGSFFLVSKLTVDKSRWQQGNVFSCSVLHEALHSHYTQKSLSLSPGK
light 2: AIRMTQSPSSFSASTGDRVTITCQASESISNELSWYQEKPGKAPKLLIYYASTLASGVPSRFSGSGSGTDFTLTISSLQPEDFATYYCAQGYGSSGVENVFGGGTKVEIKRTVAAPSVFIFPPSDEQLKSGTASVKCLLNNFYPREAKVQWKVDNALQSGNSQESVTEQDSKDSTYSLSSTLTLSKADYEKHKVYACEVTHQGLSSPVTKSFNRGEC
notes: hIgG1 N297G knob-in-hole bispecific with M428L/N434S and the chain pairing mutations; also called anti-KLK5/KLK7 bispecific antibody with M428L/N434S (LS)
[1]
  IC50, KLK7 direct functional assay (Mca-RPKPVE-Nval-WRK(Dnp)), bivalency corrected: 340 pM
Human KLK5 [2]
  IC50, KLK5 direct functional assay (Boc-Val-Pro-Arg-AMC), bivalency corrected: 540 pM
[3]
  IC50, KLK7 direct functional assay (Mca-RPKPVE-Nval-WRK(Dnp)), bivalency corrected: 360 pM
Cynomolgus monkey KLK5 [4]
  IC50, KLK5 direct functional assay (Boc-Val-Pro-Arg-AMC), bivalency corrected: 580 pM
Human KLK5 [5]
  Kd: 1.5 pM
  koff: 1.97e-05 s⁻¹
  kon: 1.5e+07 M⁻¹ s⁻¹
Cynomolgus monkey KLK5 [6]
  Kd: 16 pM
  koff: 0.00018 s⁻¹
  kon: 1.11e+07 M⁻¹ s⁻¹
Human KLK7 [7]
  Kd: 0.24 pM
  koff: 1.4e-05 s⁻¹
  kon: 5.7e+07 M⁻¹ s⁻¹
Cynomolgus monkey KLK7 [8]
  Kd: 3 pM
  koff: 7e-05 s⁻¹
  kon: 3e+07 M⁻¹ s⁻¹

B2: 14H11 (antibody, V domains shown)
VH: QSLEESGGDLVKPGASLTLTCTASGFSFSSSYYMCWVRQAPGKGLEWIASIYAGSSGAPYYAGWAKGRFTISKTSSTAVTLQMSSLTAADTATYFCAREGFAETGGYGYAAYFNLWGPGTLVTVSS
VL: AIEMTQSPPSLSASVGETVRIRCLASEDIASSVSWYQQKPGKPPTLLIYGASNLESGVPPRFTGSGSGTDYTLTIGGVQAEDAATYYCLGGYSYSSTGTAFGAGTKVEIK
notes: Recombinant rabbit anti-KLK7 monoclonal antibody, expressed in Expi293 cells, protein A purified, bivalent; also called rb.14H11
[9]
  IC50, KLK7 direct functional assay (Mca peptide substrate), bivalency not accounted for: 110 pM
[10]
  IC50, KLK7 direct functional assay (Mca peptide substrate), bivalency not accounted for: 150 pM
huKLK11
  binding result: no binding
Human KLK5 [11]
  binding result: no binding
huKLK1
  binding result: no binding
huKLK4
  binding result: no binding
Human KLK7 [12]
  koff: < 1e-06 s⁻¹
Cynomolgus monkey KLK7 [13]
  koff: < 1e-06 s⁻¹
